Data set [1] has as its target CapP-His (full-length CapP, BC1280, with C-terminal polyhistidine tag) (Bacillus cereus ATCC14579) (UniProt Q81GC7). Description: native gel or EMSA; native PAGE (Any kD Mini-PROTEAN TGX), 25 mM tris, 192 mM glycine, 200 V, NativeMark marker, Coomassie; second SEC peak. In general terms: Mobility shift assays separate free from complexed probe on a gel.
Data set [2] deals with the molecule itself. The data set is described as above.

For “CapP-His (full-length CapP, BC1280, with C-terminal polyhistidine tag) (from UniProt Q81GC7 1-279) (natural protein)”, the stoichiometry N in data set [1] stood at 15.

B1: N-domain(39-190)-His of CapP (domain or fragment)
chain: AAFIHETKVEATLSTAIIFPKTVNTLKEQSEKHKQFIEREYGTMKGKLKATSIEEIKQAISVWQQGREKIVAEKEALQNVYTEIEAPYNQIQEELKVNKDESMQQVSIYVNEGFRSIKEKRDYIEKEISLKAIDEQIQALQQQLNVAIEAEG
notes: CapP (BC1280) of Bacillus cereus ATCC14579, residues A39 to G190 (N-terminal domain); also called N-terminal domain; N-terminal construct; source: E. coli Lemo21 (DE3) pLysS, pET24b, purified under native conditions (HisTrap, Superdex 75 SEC); not shown: His6, C-terminal, kept
As for B1, the “stoichiometry N” value in data set [2] is roughly 15.

One may read the stoichiometry N as a count of units in the complex or per binding partner.

The values are drawn from PMC13082335, “Matrix plasticity and the molecular basis of extracellular filament assembly in Bacillus cereus” (Science Advances, 2026).
